Data from patent US20200234789A1, “DESIGNED PROTEINS FOR LIGAND BINDING” (THE REGENTS OF THE UNIVERSITY OF CALIFORNIA, priority 2017, published 2020).

What was measured:
[1] = Circular dichroism: temperature and GnHCl induced unfolding; type: physicochemical; settings: at 95° C.; CD at 222 nm; 50 mM NaPi, 100 mM NaCl, pH 7.5
Protocol: (§1) FIGS. 3A-3D. Biophysical characterization of apo- and holo-PS1. FIG. 3A: Electronic absorption and emission spectra of (CF3)4PZn/PS1 holo-protein and (CF3)4PZn in toluene solvent. […] FIG. 3B: Determination of KD by apo-PS1 titration into a buffer solution (100 mM NaCl, 50 mM NaPi, pH 7.5) of (CF3)4PZn with 1% w/v octyl-b-D-glucopyranoside. […] FIG. 3C: Circular dichroism (CD) spectra of apo- and holo-PS1 in 50 mM NaPi, 100 mM NaCl, pH 7.5 as a function of temperature. The transitions appear reversible based on the fact that the spectra are identical after cooling to room temperature. Units are in molar residue ellipticity. […] FIG. 3D: Pump-probe transient absorption spectra of (CF3)4PZn bound in the interior of holo-PS1 at 21° C. and 100° C. […] Inset exemplifies identical transient dynamics (primarily intersystem crossing from S1 to T1) at ΔAbs.=482 nm (scaled). Experimental conditions: solvent=50 mM NaPi, 100 mM NaCl, pH 7.5; excitation wavelength=600±5 nm; magic-angle polarization between pump and probe pulses; pump-probe cross-correlation of ˜250 fs.
FIG. 8. Temperature and GnHCl induced unfolding of apo-PS1. CD spectra at 222 nm of apo-PS1 as a function of temperature and denaturant (Guanidine HCl, GnHCl) concentration in 50 mM NaPi, 100 mM NaCl, pH 7.5 buffer. The midpoint for GnHCl-induced unfolding at 95° C. was approximately 4.5 M. […]

[2] = Porphyrin binding to apo-protein, electronic absorption spectra ((CF3)4PZn loading)
Protocol: as §1
FIG. 10. Absorption spectra of (CF3)4PZn/PS1 and (CF3)4PZn/PS2 complexes. […] Experimental conditions: buffer=100 mM NaCl, 50 mM NaPi, pH 7.5.
A 2-fold excess of the cofactor (CF3)4PZn was added from a 4 mM DMSO stock solution to a 50 mM NaPi, 100 mM NaCl, pH 7.5 buffer with apo-protein (Note that final DMSO concentrations were kept <1%.). Buffer solution of apo-PS1 protein was heated for 5 minutes at 50° C., (CF3)4PZn was then added from the DMSO stock solution, the resultant mixture was vortexed for 5 seconds, and placed back in the heat block at 50° C. for 15 minutes, with vortexing every 3 minutes. The protein/cofactor solution was then spun at 14000×g in a Amicon Ultra-0.5 mL centrifuge filter for 10 min, three times, replacing the buffer to 0.5 mL after each 10 min spin. Finally, the protein solution was spun for 4 min at 12000×g in an Amicon ultrafree-MC GV filter (UFC30GV0S). The holo-PS1 sample was then used for spectroscopic experiments immediately afterward, and diluted to an appropriate concentration if necessary. Binding of (CF3)4PFe was carried out in the same fashion, with the exception that the porphyrin was first dissolved in a stock of DMSO/CHCl3.
Electronic absorption spectra were collected using a Shimadzu UV-1700 UV-Vis spectrophotometer or Cary 5000 spectrophotometer. Steady-state emission spectra were obtained on FLS920P spectrophotometer (Edinburgh Instruments Ltd. Livingston, UK) in 1 cm quartz optical cells. The steady-state emission spectra were corrected using the correction factor generated by the manufacturer.

[3] = Pump-probe transient absorption spectroscopy of bound (CF3)4PZn at 21 and 100° C.; type: physicochemical; settings: non-natural porphyrin (CF3)4PZn
Protocol: as §1, with “Experimental conditions: solvent=50 mM NaPi, 100 mM NaCl, pH 7.5; excitation wavelength=600±5 nm; magic-angle polarization between pump and probe pulses; pump-probe cross-correlation of ˜250 fs.” left out
Ultrafast transient absorption spectra were obtained using standard pump-probe methods^9 with a time resolution of approximately 200 fs. Elevated temperature experiments were performed in a custom-made temperature block of anodized aluminum, the temperature of which was controlled by heating rods and monitored by a pair of thermocouples wired to a PID through a solid-state relay. […]

[4] = Analytical ultracentrifugation (equilibrium sedimentation), oligomeric state; type: physicochemical; settings: analytical ultracentrifugation and gel filtration
Description: FIG. 7A-7B. […] FIG. 7A: Analytical ultracentrifugation. Solutions of apo- and holo-PS1 were centrifuged at speeds ranging from 25,000 r.p.m. to 45,000 r.p.m. and monitored by absorbance at 280 nm. Parameters were globally fit to the data. Single-species fitting agrees well with the data over the entire range and yields the molecular weight of apo-PS1 […] and holo-PS1 12.24±0.91 kD, which agrees well with the 12.86 kD weight of PS1. […] Partial specific volumes were estimated from SEDNTERP^15 for amino acid side chains. FIG. 7B: Analytical gel filtration analysis of apo- and holo-PS1. Detection wavelengths are labeled as the same color as their respective curves. […] The small peak near 1.05 ml elution volume in holo-PS1 is unbound (excess), aggregated porphyrin eluting in the void volume of the superdex 75 5/150 column. Samples were run at concentrations of 100 μM and 37 μM for apo and holo, respectively, in 50 mM NaPi, 150 mM NaCl, pH 7.0 buffer.
The oligomeric state of apo- and holo-PS1 were determined by analytical equilibrium sedimentation performed at 25° C. using a Beckman XL-I analytical ultracentrifuge. Ultracentrifugation was conducted at speeds of 25K, 30K, 35K, 40K and 45K r.p.m., and the radial gradient profiles were obtained by absorbance at 280 nm. […]

porphyrin loading ([2]; (CF3)4PZn, based on absorbance at 280 nm and 423 nm, 100 mM NaCl, 50 mM NaPi, pH 7.5): 100%
time of complex formation ([2]; adding (CF3)4PZn from organic solution to aqueous PS1): within seconds
B1: PS1: de novo designed porphyrin-binding four-helix bundle protein; designed sequence SEQ ID NO:1, expressed His-tag-cleaved sequence SEQ ID NO:2 (protein)
chain: SEFEKLRQTGDELVQAFQRLREIFDKGDDDSLEQVLEEIEELIQKHRQLFDNRQEAADTEAAKQGDQWVQLFQRFREAIDKGDKDSLEQLLEELEQALQKIRELAEKKN
midpoint for GnHCl-induced unfolding [1]: approximately 4.5 M
stability of the (CF3)4PZn complex over time ([2]; complex with (CF3)4PZn): stable for over a year
temperature up to which the porphyrin is bound [3]: up to 100 °C
oligomeric state in solution [4]: monomeric
